Data reported in PMC13278974, “Nucleophagy removes cytotoxic trapped PARP1” (Nature Cell Biology, 2026).

Molecular target: T1, His–PARP1, full length, recombinant (called GFP-PARP1 / PARP1–GFP in the results and legend) (UniProt P09874 1-1014)
T1 construct: PARP1, full length, cloned into NcoI and BamHI sites of pNIC28; The methods describe only His–PARP1 from pNIC28 with no GFP; Whether GFP was on the protein is open; It was held on PARP1-trap beads; also called pNIC28–PARP1; source: E. coli Rosetta (DE3), purified (HisTrap, SEC Superdex 200)
T1 sequence (P09874 whole entry): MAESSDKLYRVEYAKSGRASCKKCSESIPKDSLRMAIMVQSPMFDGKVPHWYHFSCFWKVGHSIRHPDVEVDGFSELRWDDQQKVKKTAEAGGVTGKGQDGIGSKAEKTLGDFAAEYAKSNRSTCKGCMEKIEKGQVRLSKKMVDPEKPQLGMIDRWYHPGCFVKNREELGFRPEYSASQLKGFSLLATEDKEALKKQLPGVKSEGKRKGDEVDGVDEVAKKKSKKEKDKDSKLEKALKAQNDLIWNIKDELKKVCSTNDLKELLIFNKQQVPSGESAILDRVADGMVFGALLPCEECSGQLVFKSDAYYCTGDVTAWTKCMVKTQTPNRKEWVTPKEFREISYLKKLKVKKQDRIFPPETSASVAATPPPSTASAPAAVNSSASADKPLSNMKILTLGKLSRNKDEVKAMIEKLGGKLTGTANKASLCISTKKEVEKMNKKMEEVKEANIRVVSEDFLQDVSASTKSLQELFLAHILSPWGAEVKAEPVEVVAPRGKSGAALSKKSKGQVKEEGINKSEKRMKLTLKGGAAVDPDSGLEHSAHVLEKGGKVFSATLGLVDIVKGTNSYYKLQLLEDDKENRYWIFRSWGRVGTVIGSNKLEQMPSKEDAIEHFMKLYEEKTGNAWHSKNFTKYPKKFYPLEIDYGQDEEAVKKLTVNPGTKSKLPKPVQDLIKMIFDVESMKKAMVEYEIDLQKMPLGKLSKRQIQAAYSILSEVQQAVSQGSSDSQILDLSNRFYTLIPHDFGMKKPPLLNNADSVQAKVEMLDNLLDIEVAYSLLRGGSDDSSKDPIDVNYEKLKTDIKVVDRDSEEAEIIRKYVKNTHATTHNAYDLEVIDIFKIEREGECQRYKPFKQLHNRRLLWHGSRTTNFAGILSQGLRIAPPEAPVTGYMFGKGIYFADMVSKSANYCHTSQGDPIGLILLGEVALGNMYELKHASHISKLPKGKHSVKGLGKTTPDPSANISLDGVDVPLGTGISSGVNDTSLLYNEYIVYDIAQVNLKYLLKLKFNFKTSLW
Experiment: pull-down; PARP1 (2.5 µM) held on PARP1-trap beads, TEX264 (2.5 µM) added in 50 mM HEPES pH 7.4, 500 mM NaCl, 0.01% Triton X-100, 1 mM TCEP, 2 h at 4 °C; washes with 0.1% Triton X-100; western blot
Settings: both partners purified

binding result	Binder
binds	His–TEX264 (34-313) (domain or fragment, UniProt Q9Y6I9 34-313, looked up, the printed UniProt entry Q9Y6I9 is the human protein; The longest recombinant TEX264 described in the methods; also called TEX264^WT (variant 1); source: E. coli Rosetta (DE3), pCold cold shock system, purified (HiTrap Q FF, SEC Superdex 200)) VEVSAGSPPIRNVTVAYKFHMGLYGETGRLFTESCSISPKLRSIAVYYDNPHMVPPDKCRCAVGSILSEGEESPSPELIDLYQKFGFKVFSFPAPSHVVTATFPYTTILSIWLATRRVHPALDTYIKERKLCAYPRLEIYQEDQIHFMCPLARQGDFYVPEMKETEWKWRGLVEAIDTQVDGTGADTMSDTSSVSLEVSPGSRETSAATLSPGASSRGWDDGDTRSEHSYSESGASGSSFEELDLEGEGPLGESRLDPGTEPLGTTKWLWEPTAPEKGKE
binds	His–TEX264–Cter (186-313) (domain or fragment, UniProt Q9Y6I9 186-313, looked up, also called C-terminal half of TEX264; variant 2) RQGDFYVPEMKETEWKWRGLVEAIDTQVDGTGADTMSDTSSVSLEVSPGSRETSAATLSPGASSRGWDDGDTRSEHSYSESGASGSSFEELDLEGEGPLGESRLDPGTEPLGTTKWLWEPTAPEKGKE
